Test results taken from the supplement of paper PMC10567573.

B1: TRIM55 (parent)
chain: FQASNPYLPTRGGTTMASGGRFRC
B2: LPCAT4 (parent)
chain: HDPLYGKLFSTYLRPPHTSRGTSQ
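Further: lentivirally expressed fusions sorted by FACS into six bins by GFP to DsRed ratio, PSI derived from sequencing read proportions per bin multiplied by bin number.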

Variants of: B1
Test: protein stability index of a GFP-peptide fusion (GPS, HEK-293T) (PSI 1-6); higher = more stable
Conditions: c terminus: a fixed tail appended
In the case of PQASNPYLPTRGGTTMASGGRFRC, the protein stability index is reported as 3.91.
Work on WQASNPYLPTRGGTTMASGGRFRC yielded a protein stability index of 2.58.
Work on MQASNPYLPTRGGTTMASGGRFRC yielded a protein stability index of 3.4.
In the case of GQASNPYLPTRGGTTMASGGRFRC, the protein stability index is reported as 3.91.
Work on QQASNPYLPTRGGTTMASGGRFRC yielded a protein stability index of 3.91.
Work on IQASNPYLPTRGGTTMASGGRFRC yielded a protein stability index of 3.13.
SQASNPYLPTRGGTTMASGGRFRC gave a protein stability index of 3.52.
Variant EQASNPYLPTRGGTTMASGGRFRC has a protein stability index of 3.59.
KQASNPYLPTRGGTTMASGGRFRC gave a protein stability index of 3.41.
For DQASNPYLPTRGGTTMASGGRFRC, the protein stability index was 3.43.
NQASNPYLPTRGGTTMASGGRFRC gave a protein stability index of 3.55.
VQASNPYLPTRGGTTMASGGRFRC showed a protein stability index of 3.16.
Variant LQASNPYLPTRGGTTMASGGRFRC has a protein stability index of 3.37.
Variant AQASNPYLPTRGGTTMASGGRFRC has a protein stability index of 3.51.
In the case of TQASNPYLPTRGGTTMASGGRFRC, the protein stability index is reported as 3.49.
With YQASNPYLPTRGGTTMASGGRFRC the protein stability index was 2.06.
Variant HQASNPYLPTRGGTTMASGGRFRC has a protein stability index of 3.24.
CQASNPYLPTRGGTTMASGGRFRC gave a protein stability index of 2.2.
Work on RQASNPYLPTRGGTTMASGGRFRC yielded a protein stability index of 3.57.
In the case of FFASNPYLPTRGGTTMASGGRFRC, the protein stability index is reported as 2.03.
For FAASNPYLPTRGGTTMASGGRFRC, the protein stability index was 2.17.
With FKASNPYLPTRGGTTMASGGRFRC the protein stability index was 2.85.
In the case of FIASNPYLPTRGGTTMASGGRFRC, the protein stability index is reported as 2.22.
For FSASNPYLPTRGGTTMASGGRFRC, the protein stability index was 2.13.
Work on FYASNPYLPTRGGTTMASGGRFRC yielded a protein stability index of 2.2.
FPASNPYLPTRGGTTMASGGRFRC gave a protein stability index of 1.61.
Variant FGASNPYLPTRGGTTMASGGRFRC has a protein stability index of 1.9.
Variant FVASNPYLPTRGGTTMASGGRFRC has a protein stability index of 1.74.
FNASNPYLPTRGGTTMASGGRFRC showed a protein stability index of 2.68.
FLASNPYLPTRGGTTMASGGRFRC gave a protein stability index of 1.94.
Work on FWASNPYLPTRGGTTMASGGRFRC yielded a protein stability index of 2.3.
Variant FRASNPYLPTRGGTTMASGGRFRC has a protein stability index of 2.68.
Variant FCASNPYLPTRGGTTMASGGRFRC has a protein stability index of 1.44.
FMASNPYLPTRGGTTMASGGRFRC gave a protein stability index of 2.
For FEASNPYLPTRGGTTMASGGRFRC, the protein stability index was 3.38.
For FTASNPYLPTRGGTTMASGGRFRC, the protein stability index was 1.68.
In the case of FHASNPYLPTRGGTTMASGGRFRC, the protein stability index is reported as 2.99.
For FDASNPYLPTRGGTTMASGGRFRC, the protein stability index was 3.43.
With FQDSNPYLPTRGGTTMASGGRFRC the protein stability index was 2.71.
FQCSNPYLPTRGGTTMASGGRFRC showed a protein stability index of 1.32.

Variants of: B2
Test: as above
Conditions: c terminus: a fixed tail appended
HDPLYGKLFSTYLRPPHDSRGTSQ showed a protein stability index of 2.83.
With HDPLYGKLFSTYLRPPHFSRGTSQ the protein stability index was 2.24.
With HDPLYGKLFSTYLRPPHKSRGTSQ the protein stability index was 2.65.
With HDPLYGKLFSTYLRPPHMSRGTSQ the protein stability index was 2.57.
Work on HDPLYGKLFSTYLRPPHYSRGTSQ yielded a protein stability index of 2.29.
Variant HDPLYGKLFSTYLRPPHVSRGTSQ has a protein stability index of 2.68.
Variant HDPLYGKLFSTYLRPPHLSRGTSQ has a protein stability index of 2.42.
For HDPLYGKLFSTYLRPPHHSRGTSQ, the protein stability index was 2.61.
In the case of HDPLYGKLFSTYLRPPHQSRGTSQ, the protein stability index is reported as 2.61.
With HDPLYGKLFSTYLRPPHSSRGTSQ the protein stability index was 2.3.
Variant HDPLYGKLFSTYLRPPHISRGTSQ has a protein stability index of 2.52.
Variant HDPLYGKLFSTYLRPPHPSRGTSQ has a protein stability index of 2.45.
In the case of HDPLYGKLFSTYLRPPHGSRGTSQ, the protein stability index is reported as 2.41.
For HDPLYGKLFSTYLRPPHASRGTSQ, the protein stability index was 2.52.
For HDPLYGKLFSTYLRPPHRSRGTSQ, the protein stability index was 2.57.
HDPLYGKLFSTYLRPPHWSRGTSQ gave a protein stability index of 2.12.
HDPLYGKLFSTYLRPPHNSRGTSQ showed a protein stability index of 3.05.
HDPLYGKLFSTYLRPPHESRGTSQ gave a protein stability index of 2.6.
HDPLYGKLFSTYLRPPHCSRGTSQ gave a protein stability index of 2.66.
With HDPLYGKLFSTYLRPPHTSRGTVQ the protein stability index was 2.49.
HDPLYGKLFSTYLRPPHTSRGTHQ gave a protein stability index of 2.73.
Work on HDPLYGKLFSTYLRPPHTSRGTDQ yielded a protein stability index of 3.17.
With HDPLYGKLFSTYLRPPHTSRGTGQ the protein stability index was 2.18.
HDPLYGKLFSTYLRPPHTSRGTLQ showed a protein stability index of 2.39.
In the case of HDPLYGKLFSTYLRPPHTSRGTYQ, the protein stability index is reported as 2.19.
HDPLYGKLFSTYLRPPHTSRGTTQ gave a protein stability index of 2.66.
With HDPLYGKLFSTYLRPPHTSRGTRQ the protein stability index was 2.45.
HDPLYGKLFSTYLRPPHTSRGTKQ showed a protein stability index of 2.51.
HDPLYGKLFSTYLRPPHTSRGTMQ showed a protein stability index of 2.34.
For HDPLYGKLFSTYLRPPHTSRGTWQ, the protein stability index was 2.4.
Work on HDPLYGKLFSTYLRPPHTSRGTQQ yielded a protein stability index of 2.52.
For HDPLYGKLFSTYLRPPHTSRGTPQ, the protein stability index was 2.87.
HDPLYGKLFSTYLRPPHTSRGTFQ showed a protein stability index of 2.09.
Work on HDPLYGKLFSTYLRPPHTSRGTAQ yielded a protein stability index of 3.
Variant HDPLYGKLFSTYLRPPHTSRGTEQ has a protein stability index of 2.64.
Variant HDPLYGKLFSTYLRPPHTSRGTCQ has a protein stability index of 2.61.
Variant HDPLYGKLFSTYLRPPHTSRGTIQ has a protein stability index of 2.3.
With HDPLYGKLFSTYLRPPHTSRGTNQ the protein stability index was 2.77.
HDPLYGKLFSTYLRPPHTSRGLSQ showed a protein stability index of 2.81.
In the case of HDPLYGKLFSTYLRPPHTSRGKSQ, the protein stability index is reported as 2.61.
For HDPLYGKLFSTYLRPPHTSRGQSQ, the protein stability index was 2.32.
In the case of HDPLYGKLFSTYLRPPHTSRGYSQ, the protein stability index is reported as 2.13.
For HDPLYGKLFSTYLRPPHTSRGVSQ, the protein stability index was 2.12.
For HDPLYGKLFSTYLRPPHTSRGDSQ, the protein stability index was 2.6.
For HDPLYGKLFSTYLRPPHTSRGPSQ, the protein stability index was 2.59.
Work on HDPLYGKLFSTYLRPPHTSRGMSQ yielded a protein stability index of 2.72.
Variant HDPLYGKLFSTYLRPPHTSRGFSQ has a protein stability index of 2.42.
HDPLYGKLFSTYLRPPHTSRGHSQ showed a protein stability index of 2.81.
With HDPLYGKLFSTYLRPPHTSRGWSQ the protein stability index was 1.98.
In the case of HDPLYGKLFSTYLRPPHTSRGCSQ, the protein stability index is reported as 2.43.
HDPLYGKLFSTYLRPPHTSRGESQ showed a protein stability index of 3.04.
With HDPLYGKLFSTYLRPPHTSRGSSQ the protein stability index was 2.74.
HDPLYGKLFSTYLRPPHTSRGISQ showed a protein stability index of 2.22.
HDPLYGKLFSTYLRPPHTSRGNSQ gave a protein stability index of 2.8.
